Results on one molecule are retold here after PMC2139800 (The Journal of Cell Biology, 1997).

The test deals with F-actin (unlabeled) (rabbit, UniProt P68135 1-377). The test can be described thus: co-sedimentation.

B1: His6–l-afadin-C (aa 1631–1829) (domain or fragment)
chain: DRVRQEEDGRHQEEERVKRDAEEKRRQEEGYYSRLEAERRRQHEEAARRLLEPEEPGLSRPPLPQDYEPPSQSSAPSAPPPPPQRNASYLKTQVLSPDSLFTAKFVAYDDDDEEENYVPAGPNSYSGSAGTTAGTYDAPRDTREKLSRSQDADLPGSSGAPENLTFRERQRLFSQGQDVSDKVKASRKLTELENELNTK
B1: the “stoichiometry N” value is ~500 actin molecules per His6–l-afadin-C molecule.
